Patent US20150361176A1 (GlaxoSmithKline, published 2015)
Values joined by “and” are separate entries in the source; they are usually repeats but may differ in a detail not shown here. Equal entries are not always repeated.

B1: DOM23h-840 (VHH, not shown: small tags and cut ends)
VHH: EVQLLESGGGLVQPGGSLRLSCAASGFTFGDGRMWWVRQAPGKGLEWVSAIEGAGSDTYYADSVKGRFTISRDNSKNTLYLQMNSLRAEDTAVYYCAKQASRNSPFDYWGQGTLVTVSS
B2: DOM23h-883 (VHH, not shown: small tags and cut ends)
VHH: EVQLLESGGGLVQPGGSLRLSCAASGFTFVNYRMWWVRQAPGKGLEWVSAISGSGDKTYYADSVKGRFTISRDNSKNTLYLQMNSLRAEDTAVYYCAKHGLSFDYWGQGTLVTVSS
B3: DOM23h-903 (VHH, not shown: small tags and cut ends)
VHH: EVQLLESGGGLVQPGGSLRLSCAASGFTFNDMRMWWVRQAPGKGLEWVSVINADGNRTYYADSVKGRFTISRDNSKNTLYLQMNSLRAEDTAVYYCAKDGLPFDYWGQGTLVTVSS
B4: DOM23h-831 (VHH, not shown: small tags and cut ends)
VHH: EVQLLESGGGLVQPGGSLRLSCAASGFTFEAYKMTWVRQAPGKGLEWVSYITPSGGQTYYADSVKGRFTISRDNSKNTLYLQMNSLRAEDTAVYYCAKYGSSFDYWGQGTLVTVSS
B5: DOM23h-874 (VHH, not shown: small tags and cut ends)
VHH: EVQLLESGGGLVQPGGSLRLSCAASGFTFTSYRMWWVRQAPGKGLEWVSVIDSTGSATYYADSVKGRFTISRDNSKNTLYLQMNSLRAEDTAVYYCAKQQAGSAMGEFDYWGQGTLVTVSS
B6: DOM23h-802 (VHH, not shown: small tags and cut ends)
VHH: EVQLLESGGGLVQPGGSLRLSCAASGFTFSEGTMWWVRQAPGKGLEWVSAILAAGSNTYYADSVKGRFTISRDNSKNTLYLQMNSLRAEDTAVYYCAKKRQERDGFDYWGQGTLVTVSS
B7: DOM23h-850 (VHH, not shown: small tags and cut ends)
VHH: EVQLLESGGGLVQPGGSLRLSCAASGFTFDAARMWWARQAPGKGLEWVSAIADIGNTTYYADSVKGRFTISRDNSKNTLYLQMNSLRAEDTAVYYCAKQSGSEDHFDYWGQGTLVTVSS
B8: DOM23h-828 (VHH, not shown: small tags and cut ends)
VHH: EVQLLESGGGLVQPGGSLRLSCAASGFTFMSYRMWWVRQAPGKGLEWVSAISPSGSDTYYADSVKGRFTISRDNSKNTLYLQMNSLRAEDTAVYYCAKQVVEYSRTHKGVFDYWGQGTLVTVSS
B9: DOM23h-865 (VHH, not shown: small tags and cut ends)
VHH: EVQLLESGGGLVQPGGSLRLSCAASGFTFRSYEMTWVRQAPGKGLEWVSKIDPSGRFTYYADSVKGRFTISRDNSKNTLYLQMNSLRAEDTAVYYCAKGRTDLQLFDYWGQGTLVTVSS
B10: DOM23h-842 (VHH, not shown: small tags and cut ends)
VHH: EVQLLESGGGLVQPGGSLRLSCAASGFTFDDSEMAWARQAPGKGLEWVSLIRRNGNATYYADSVKGRFTISRDNSKNTLYLQMNSLRAEDTAVYYCAKVTKDRSVLFDYWGQGTLVTVSS
B11: DOM23h-866 (VHH, not shown: small tags and cut ends)
VHH: EVQLLESGGGLVQPGGSLRLSCAASGFTFSNYWMRWARQAPGKGLEWVSYITPKGDHTYYADSVKGRFTISRDNSKNTLYLQMNSLRAEDTAVYYCAESLHNERVKHFDYWGQGTLVTVSS
B12: DOM23h-803 (VHH, not shown: small tags and cut ends)
VHH: EVQLLESGGGLVQPGGSLRLSCAASGFTFSAGRMWWVRQAPGKGLEWVSAINRDGTRTYYADSVKGRFTISRDNSKNTLYLQMNSLRAEDTAVYYCAKHDDGHGNFDYWGQGTLVTVSS
B13: DOM23h-830 (VHH, not shown: small tags and cut ends)
VHH: EVQLLESGGGLVQPGGFLRLSCAASGFTFEGYRMWWVRQAPGKGLEWVSAIDSLGDRTYYADSVKGRFTISRDNSKNTLYLQMNSLRAEDTAVYYCAKQGLTHQSPSTFDYWGQGTLVTVSS
B14: DOM23h-815 (VHH, not shown: small tags and cut ends)
VHH: EVQLLESGGGLVQPGGSLRLSCAASGFTFAEDRMWWVRQAPGKGLEWVSAIDPQGQHTYYADSVKGRFTISRDNSKNTLYLQMNSLRAEDTAVYYCAKQSTGSATSDYWGQGTLVTVSS
B15: DOM23h-854 (VHH, not shown: small tags and cut ends)
VHH: EVQLLESGGGLVQPGGSLRLSCAASGFTFAQDRMWWVRQAPGKGLEWVSAISGSGGSTYYADSVKGRFTISRDNSKNTLYLQMNSLRAEDTAVYYCAKQDLHGTSSLFDYWGQGTLVTVSS
B16: DOM23h-813 (VHH, not shown: small tags and cut ends)
VHH: EVQLLESGGGLVQPGGSLRLSCAASGSTFTDDRMWWVRQAPGKGLEWVSAIQPDGHTTYYADSVKGRFTISRDNSKNTLYLQMNSLRAEDTAVYYCAEQDVKGSSSFDYWGQGTLVTVSS
B17: DOM23h-439-25 (VHH)
VHH: EVQLLESGGGLVQPGGSLRLSCAASGFTFGTEQMWWVRQAPGKGLEFVSRIDSPGGRTYYADSVKGRFTISRDNSKNTLYLQMNSLRAEDTAVYYCAKRRPTGVSGTFYDYWGQGTLVTVSS
notes: expressed from pC10
B18: DOM23h-439-35 (VHH)
VHH: EVQLLESGGGLVQPGGSLRLSCAASGFTFGTDQMWWVRQAPGKGLEFVSRIDSPGGRTYYANSVKGRFTISRDNSKNTLYLQMNSLRAEDTAVYYCAKRQPAGVSGKYVDYWGQGTLVTVSS
notes: expressed from pC10
B19: DOM23h-271-101 (VHH)
VHH: EVQLLESGGGLVQPGGSLRLSCAASGFTFTEYRMWWVRQAPGKGLEWVSAIEPIGNRTYYADSVKGRFTISRDNSKNTLYLQMNSLRAEDTAVYYCAKQIPGRKWTANGRKDYWGQGTLVTVSS
notes: human VH dAb from phage display maturation of DOM23h-271-7; not shown: C-terminal FLAG tag from vector pDOM10
B20: DOM23h-271-106 (VHH)
VHH: EVQLLESGGGLVQPGGSLRLSCAASGFTFTEYRMWWVRQAPGKGLEWVSAIEPIGNRTYYADSVKGRFTISRDNSKNTLYLQMNSLRAEDTAVYYCAKQFPGRKWTANSRSDYWGQGTLVTVSS
notes: human VH dAb from phage display maturation of DOM23h-271-7; also called 271-106a; 271-106b; not shown: C-terminal FLAG tag from vector pDOM10
B21: DOM23h-271-102 (VHH)
VHH: EVQLLESGGGLVQPGGSLRLSCAASGSTFTEYRMWWVRQAPGKGLEWVSAIEPIGHRTYYADSVKGRFTISRDNSKNTLYLQMNSLRAEDTAVYYCAKQIPGRKWTANSRFDYWGQGTLVTVSS
notes: as for B19
B22: DOM23h-271-105 (VHH)
VHH: EVQLLESGGGLVQPGGSLRLSCAASGFTFTEYRMWWVRQAPGKGLEWVSAIEPIGNRTYYADSVKGRFTISRDNSKNTLYLQMNSLRAEDTAVYYCAKQIPGQRWTGNSRFDYWGQGTLVTVSS
notes: as for B19
B23: DOM23h-271-114 (VHH)
VHH: EVQLLESGGGLVQPGGSLRLSCAASGFTFTEYRMWWVRQAPGKGLEWVSAIEPIGNRTYYADSVKGRFTISRDNSKNTLYLQMNSLRAEDTAVYYCAKQIPGRKGTANSRFDYWGQGTLVTVSS
notes: as for B19

biological target: T1, human TGF-βRII on cells (SBE-bla HEK 293T cells; A549 cells) (human, UniProt P37173 23-567); assay: cell-based or functional assay
T1 sequence (P37173 23-567): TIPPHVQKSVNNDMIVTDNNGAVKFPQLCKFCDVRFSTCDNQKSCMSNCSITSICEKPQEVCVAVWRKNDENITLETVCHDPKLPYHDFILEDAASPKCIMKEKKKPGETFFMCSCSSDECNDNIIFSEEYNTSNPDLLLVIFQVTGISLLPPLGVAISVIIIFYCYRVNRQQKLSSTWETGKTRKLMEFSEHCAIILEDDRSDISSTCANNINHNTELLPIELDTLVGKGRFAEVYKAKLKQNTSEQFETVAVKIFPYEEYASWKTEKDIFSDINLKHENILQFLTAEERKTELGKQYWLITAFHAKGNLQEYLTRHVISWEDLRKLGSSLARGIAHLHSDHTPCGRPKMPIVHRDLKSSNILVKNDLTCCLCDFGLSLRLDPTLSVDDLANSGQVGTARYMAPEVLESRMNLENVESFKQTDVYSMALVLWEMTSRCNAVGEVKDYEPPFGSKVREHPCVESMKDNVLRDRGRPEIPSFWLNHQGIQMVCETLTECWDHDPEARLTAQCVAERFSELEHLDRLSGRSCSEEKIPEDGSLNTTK

| Binder | IC50 nM, Mean (SBE-bla HEK 293T cell sensor assay, h2) [nM] |
| --- | --- |
| B1 | 2920 |
| B2 | 10100 |
| B3 | 1050 |
| B4 | > 3130 |
| B5 | > 925 |
| B6 | > 11100 |
| B7 | 5350 |
| B8 | 9900 |
| B9 | 5560 |
| B10 | 2040 |
| B11 | > 1760 |
| B12 | > 11600 |
| B13 | 6300 |
| B14 | 7120 |
| B15 | > 9550 |
| B16 | > 9330 |

biological target: T1, human TGF-βRII on cells (SBE-bla HEK …); assay: cell-based or functional assay; remark: another data set of the same source

| Binder | IC50 nM, Mean (SBE-bla HEK 293T cell sensor assay) [nM] |
| --- | --- |
| B17 | 4 |
| B18 | 0.5 |

biological target: T2, recombinant human TGF-β RII/Fc chimera protein (human, UniProt P37173 24-159); assay: SPR Biacore T100, human TGFbRII-FC, 1:1 model
T2 construct: range 24-159; Made in HEK-F cells; Biotinylated where it was put on SA chips, otherwise captured by anti-human IgG; also called human TGFbRII/Fc; hRII-Fc; not shown: Fc region of human IgG1
Procedure: Triplet or doped libraries in separate CDR1, CDR2 and CDR3 pools were subjected to rounds of phage selection as described above against either biotinylated human TGF-β RII/Fc antigen over 4 rounds in concentrations of 10 nM, 1 nM, 100 pM and 20 pM respectively, or two rounds of selection using 20 pM followed by 2 pM antigen. Inserts from phage selections were cloned into the pDOM10 expression vector and supernatants with off rates improved over parent were selected for further study. Domain antibodies were expressed and purified their affinity and bioactivity against human TGF-β RII/Fc antigen tested on the BIACORE™ T100 and in the Cell sensor assay described above (data not shown).
BIACORE™ analysis was carried out using a capture surface on a CM4 chip. Anti-human IgG was used as the capturing agent and coupled to a CM4 biosensor chip by primary amine coupling. The Antigen molecule fused to the human Fc was captured on this immobilised surface to a level from 250 to 300 resonance units and defined concentrations of Domain antibodies diluted in running buffer were passed over this captured surface. An injection of buffer over the captured antigen surface was used for double referencing. […] All runs were carried out at 25° C. using HBS-EP buffer as running buffer. Data were generated using the BIACORE™ T100 and fitted to the 1:1 binding model inherent to the software.

T2 sequence (P37173 24-159 limits assumed, stated change not applied): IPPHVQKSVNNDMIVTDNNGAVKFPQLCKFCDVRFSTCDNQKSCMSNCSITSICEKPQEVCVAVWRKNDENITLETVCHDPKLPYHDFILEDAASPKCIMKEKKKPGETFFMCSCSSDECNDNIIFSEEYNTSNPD

| Binder | Kd | koff | kon |
| --- | --- | --- | --- |
| B19 | 5.4 nM | 0.0201 s⁻¹ | 3.73e+06 M⁻¹ s⁻¹ |
| B20 | 3.16 nM and 2.88 nM | 0.0233 s⁻¹ and 0.0195 s⁻¹ | 7.39e+06 M⁻¹ s⁻¹ and 6.77e+06 M⁻¹ s⁻¹ |
| B21 | 1.64 nM | 0.0153 s⁻¹ | 9.35e+06 M⁻¹ s⁻¹ |
| B22 | 2.27 nM and 2.6 nM | 0.00747 s⁻¹ and 0.00798 s⁻¹ | 3.29e+06 M⁻¹ s⁻¹ and 3.07e+06 M⁻¹ s⁻¹ |
| B23 | 6.8 nM | 0.0708 s⁻¹ | 1.04e+07 M⁻¹ s⁻¹ |

biological target: T2, recombinant human TGF-β RII/Fc chimera …; assay: SPR Biacore T200, receptor-Fc captured by anti-human IgG, dAb as analyte, 1:1 model
Procedure: (§1) Anti-human IgG was immobilised on a Biacore CM4 chip by primary amine coupling according to the manufacturer's instructions. Human TGF-β RII/Fc, cynomolgus TGF-β RII/Fc or human Fc fragment were captured on this surface. Domain antibodies were passed over the two captured receptors at 3 concentrations of 100, 10 and 1 nM (DOM23h-439 dAbs) or 100, 25 and 6.25 nM (DOM23h-271 dAbs). Only the 100 nM concentration of each dab was passed over human Fc fragment to confirm specificity of binding to the extracellular TGF-β RII domain. An injection of buffer over the captured antigen surface was used for double referencing. […] All runs were carried out at 25° C. using HBS-EP buffer as running buffer. Data were generated using the BIACORE™ T200 and fitted to the 1:1 binding model inherent to the software. […] The DOM23h-271 dAbs and the DOM23h-439 lineages were run in separate experiments.

| Binder | Kd [nM] | koff [s⁻¹] | kon [M⁻¹ s⁻¹] |
| --- | --- | --- | --- |
| B17 | 0.0817 | 0.000634 | 7.77e+06 |
| B18 | 0.00983 | 0.000222 | 2.26e+07 |

biological target: T3, cynomolgus TGF-β RII/Fc (cynomolgus); assay: as above
T3 construct: extracellular domain; also called Cyno TGFBRII; Cyno TGFbRII
Procedure: as §1

| Binder | Kd [nM] | koff [s⁻¹] | kon [M⁻¹ s⁻¹] |
| --- | --- | --- | --- |
| B17 | 0.304 | 0.00273 | 8.99e+06 |
| B18 | 0.0291 | 0.000675 | 2.32e+07 |
